Consider one protein from patent US20080213836.

The target in one data set is T1, human fibrinogen, P02671.
T1 chain 1: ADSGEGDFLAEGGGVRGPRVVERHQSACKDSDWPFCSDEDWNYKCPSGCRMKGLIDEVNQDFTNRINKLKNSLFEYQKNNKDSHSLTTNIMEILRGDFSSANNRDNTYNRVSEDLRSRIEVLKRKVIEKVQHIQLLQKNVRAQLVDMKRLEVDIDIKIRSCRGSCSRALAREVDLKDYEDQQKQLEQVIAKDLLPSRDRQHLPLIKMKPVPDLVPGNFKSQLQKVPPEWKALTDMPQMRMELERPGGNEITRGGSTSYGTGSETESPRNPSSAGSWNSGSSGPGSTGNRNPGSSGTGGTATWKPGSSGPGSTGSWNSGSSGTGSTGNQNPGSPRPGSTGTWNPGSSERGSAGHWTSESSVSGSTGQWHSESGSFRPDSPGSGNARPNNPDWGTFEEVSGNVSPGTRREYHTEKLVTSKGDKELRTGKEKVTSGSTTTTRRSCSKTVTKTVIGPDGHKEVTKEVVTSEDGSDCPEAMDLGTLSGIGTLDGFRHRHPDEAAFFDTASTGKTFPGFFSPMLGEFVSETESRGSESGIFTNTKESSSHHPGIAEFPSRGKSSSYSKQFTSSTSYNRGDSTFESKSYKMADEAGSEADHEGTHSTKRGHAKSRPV
T1 chain 2: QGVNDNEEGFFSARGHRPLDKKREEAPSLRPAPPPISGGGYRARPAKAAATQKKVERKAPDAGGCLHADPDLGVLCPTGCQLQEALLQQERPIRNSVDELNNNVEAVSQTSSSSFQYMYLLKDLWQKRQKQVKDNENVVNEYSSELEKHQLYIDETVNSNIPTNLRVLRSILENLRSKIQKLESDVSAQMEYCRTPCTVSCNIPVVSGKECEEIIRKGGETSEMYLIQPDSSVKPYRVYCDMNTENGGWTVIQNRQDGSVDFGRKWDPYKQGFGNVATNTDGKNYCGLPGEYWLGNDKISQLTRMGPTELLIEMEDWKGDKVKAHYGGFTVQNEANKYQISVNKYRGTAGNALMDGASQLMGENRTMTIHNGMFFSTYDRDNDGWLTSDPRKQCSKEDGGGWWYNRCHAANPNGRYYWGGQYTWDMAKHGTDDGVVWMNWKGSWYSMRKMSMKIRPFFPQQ
T1 chain 3: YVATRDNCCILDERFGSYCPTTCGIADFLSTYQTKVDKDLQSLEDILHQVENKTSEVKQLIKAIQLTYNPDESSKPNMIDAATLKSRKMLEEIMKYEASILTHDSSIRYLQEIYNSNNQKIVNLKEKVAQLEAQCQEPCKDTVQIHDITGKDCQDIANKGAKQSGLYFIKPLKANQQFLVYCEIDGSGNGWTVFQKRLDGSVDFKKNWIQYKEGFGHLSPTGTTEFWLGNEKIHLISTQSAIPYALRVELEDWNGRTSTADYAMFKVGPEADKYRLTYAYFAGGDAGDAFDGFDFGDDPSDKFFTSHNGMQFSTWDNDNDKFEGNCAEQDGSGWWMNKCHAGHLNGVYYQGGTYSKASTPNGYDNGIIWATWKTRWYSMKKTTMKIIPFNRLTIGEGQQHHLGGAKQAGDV

In another data set the target is T2, Z-Phe-Arg-MCA.
T2 chain: FR

Data set [1] has as its target T3, Boc-Glu(OBzl)-Ala-Arg-MCA.
T3 chain: EAR

For data set [2], the target named is T4, Gly-Asp-Asp-Asp-Asp-Lys-β-naphthylamide.
T4 chain: GDDDDK

The target in data set [3] is T5, recombinant fusion protein of human kallikrein 8 (hK8), O60259.
T5 sequence (O60259 whole entry, looked up): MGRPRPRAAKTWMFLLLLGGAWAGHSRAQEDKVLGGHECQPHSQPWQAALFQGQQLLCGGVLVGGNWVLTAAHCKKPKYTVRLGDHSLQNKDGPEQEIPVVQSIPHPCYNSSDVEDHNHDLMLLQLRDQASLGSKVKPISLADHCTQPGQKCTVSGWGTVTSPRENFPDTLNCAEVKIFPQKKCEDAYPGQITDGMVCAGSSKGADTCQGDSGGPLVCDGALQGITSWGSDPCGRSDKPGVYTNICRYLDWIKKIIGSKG

Data set [4] has as its target recombinant fusion protein of Medaka gelatinase A.
For data set [5], the target named is D4K-cleavage site-containing control protein (Novagen).
In data set [6] the target is human single-chain tPA fusion protein with N-terminal His-tag/EP-cleavage site, P00750.
human single-chain tPA fusion protein with N-terminal His-tag/EP-cleavage site, P00750, sequence (P00750 whole entry, looked up, the tested form may be a part): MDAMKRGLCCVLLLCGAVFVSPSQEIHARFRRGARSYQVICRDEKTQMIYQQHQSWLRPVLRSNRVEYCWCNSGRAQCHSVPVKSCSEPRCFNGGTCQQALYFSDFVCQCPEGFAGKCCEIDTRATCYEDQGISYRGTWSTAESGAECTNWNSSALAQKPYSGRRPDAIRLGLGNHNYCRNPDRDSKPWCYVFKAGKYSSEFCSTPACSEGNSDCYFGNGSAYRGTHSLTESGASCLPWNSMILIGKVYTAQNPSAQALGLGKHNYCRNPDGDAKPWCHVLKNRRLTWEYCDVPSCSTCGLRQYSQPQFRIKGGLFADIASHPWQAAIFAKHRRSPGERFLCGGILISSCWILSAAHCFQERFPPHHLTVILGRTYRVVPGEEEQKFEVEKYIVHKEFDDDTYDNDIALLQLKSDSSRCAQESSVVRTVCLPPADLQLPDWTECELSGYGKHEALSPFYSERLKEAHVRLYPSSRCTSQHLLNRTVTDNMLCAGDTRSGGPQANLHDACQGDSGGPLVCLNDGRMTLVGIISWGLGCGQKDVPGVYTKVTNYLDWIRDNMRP
In data set [7] the target is Human plasma fibronectin, P02751.
Human plasma fibronectin, P02751, sequence (P02751 other isoform, or with tags, fused parts or gaps): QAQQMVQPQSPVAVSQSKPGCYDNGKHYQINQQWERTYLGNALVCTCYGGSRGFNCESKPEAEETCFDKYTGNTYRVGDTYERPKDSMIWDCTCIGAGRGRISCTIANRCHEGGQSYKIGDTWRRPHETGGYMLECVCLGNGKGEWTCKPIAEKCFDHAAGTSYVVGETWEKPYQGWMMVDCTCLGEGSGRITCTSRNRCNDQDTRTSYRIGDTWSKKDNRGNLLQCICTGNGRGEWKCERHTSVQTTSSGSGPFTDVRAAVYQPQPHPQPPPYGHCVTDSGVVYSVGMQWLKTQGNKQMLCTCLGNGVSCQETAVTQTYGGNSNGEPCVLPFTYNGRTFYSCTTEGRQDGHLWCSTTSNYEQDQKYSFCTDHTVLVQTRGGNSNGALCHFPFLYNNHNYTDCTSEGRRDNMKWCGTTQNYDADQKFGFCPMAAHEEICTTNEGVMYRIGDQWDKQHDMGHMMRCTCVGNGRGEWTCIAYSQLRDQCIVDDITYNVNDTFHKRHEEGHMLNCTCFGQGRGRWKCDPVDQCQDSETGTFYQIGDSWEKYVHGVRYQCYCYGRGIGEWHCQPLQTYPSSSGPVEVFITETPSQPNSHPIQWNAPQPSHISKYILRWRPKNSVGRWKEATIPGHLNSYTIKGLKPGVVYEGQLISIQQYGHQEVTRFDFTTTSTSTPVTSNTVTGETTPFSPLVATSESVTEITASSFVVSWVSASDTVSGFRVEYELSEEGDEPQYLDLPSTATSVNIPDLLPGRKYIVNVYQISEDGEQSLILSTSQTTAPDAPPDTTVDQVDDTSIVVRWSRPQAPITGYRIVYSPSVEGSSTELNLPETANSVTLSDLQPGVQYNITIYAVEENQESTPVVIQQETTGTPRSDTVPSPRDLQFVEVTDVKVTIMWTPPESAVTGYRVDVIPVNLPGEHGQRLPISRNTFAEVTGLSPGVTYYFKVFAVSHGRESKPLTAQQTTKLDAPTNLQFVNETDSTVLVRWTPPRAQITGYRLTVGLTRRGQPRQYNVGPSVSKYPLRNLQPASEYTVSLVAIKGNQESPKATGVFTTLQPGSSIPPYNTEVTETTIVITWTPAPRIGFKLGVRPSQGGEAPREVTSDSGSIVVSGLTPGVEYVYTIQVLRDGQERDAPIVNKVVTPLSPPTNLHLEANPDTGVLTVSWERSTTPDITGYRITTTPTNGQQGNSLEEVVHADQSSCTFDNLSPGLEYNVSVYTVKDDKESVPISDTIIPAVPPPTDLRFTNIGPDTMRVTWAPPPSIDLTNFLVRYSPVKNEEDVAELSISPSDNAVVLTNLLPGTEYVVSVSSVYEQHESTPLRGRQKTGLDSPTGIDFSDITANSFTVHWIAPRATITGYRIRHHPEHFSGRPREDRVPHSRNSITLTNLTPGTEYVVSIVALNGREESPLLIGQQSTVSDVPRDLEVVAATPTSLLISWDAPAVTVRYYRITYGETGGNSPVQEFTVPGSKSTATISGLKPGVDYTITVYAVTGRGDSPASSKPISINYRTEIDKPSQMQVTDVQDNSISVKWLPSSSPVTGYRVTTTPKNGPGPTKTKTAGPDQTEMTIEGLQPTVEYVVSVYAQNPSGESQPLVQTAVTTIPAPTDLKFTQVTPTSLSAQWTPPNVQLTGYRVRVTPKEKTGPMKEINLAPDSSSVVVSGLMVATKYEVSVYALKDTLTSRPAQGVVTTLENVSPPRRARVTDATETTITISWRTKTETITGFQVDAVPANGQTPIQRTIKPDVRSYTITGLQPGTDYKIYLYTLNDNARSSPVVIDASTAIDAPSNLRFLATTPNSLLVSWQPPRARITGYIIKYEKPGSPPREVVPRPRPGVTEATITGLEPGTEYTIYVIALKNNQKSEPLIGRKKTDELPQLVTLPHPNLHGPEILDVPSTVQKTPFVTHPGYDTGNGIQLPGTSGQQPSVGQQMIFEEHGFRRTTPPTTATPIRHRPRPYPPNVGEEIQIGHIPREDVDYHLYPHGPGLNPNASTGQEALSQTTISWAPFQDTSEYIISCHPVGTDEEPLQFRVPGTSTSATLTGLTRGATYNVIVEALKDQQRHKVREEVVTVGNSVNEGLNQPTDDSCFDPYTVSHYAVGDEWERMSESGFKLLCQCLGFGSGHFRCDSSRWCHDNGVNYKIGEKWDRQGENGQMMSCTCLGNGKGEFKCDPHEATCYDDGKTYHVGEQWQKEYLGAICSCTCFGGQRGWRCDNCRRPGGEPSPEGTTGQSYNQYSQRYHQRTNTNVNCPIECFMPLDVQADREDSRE
The next data set concerns the target T6, Pro-Phe-Arg-MCA.
T6 chain: PFR

Data set [8] addresses T7, human high-molecular-weight (HMW) kininogen, P01042.
T7 chain: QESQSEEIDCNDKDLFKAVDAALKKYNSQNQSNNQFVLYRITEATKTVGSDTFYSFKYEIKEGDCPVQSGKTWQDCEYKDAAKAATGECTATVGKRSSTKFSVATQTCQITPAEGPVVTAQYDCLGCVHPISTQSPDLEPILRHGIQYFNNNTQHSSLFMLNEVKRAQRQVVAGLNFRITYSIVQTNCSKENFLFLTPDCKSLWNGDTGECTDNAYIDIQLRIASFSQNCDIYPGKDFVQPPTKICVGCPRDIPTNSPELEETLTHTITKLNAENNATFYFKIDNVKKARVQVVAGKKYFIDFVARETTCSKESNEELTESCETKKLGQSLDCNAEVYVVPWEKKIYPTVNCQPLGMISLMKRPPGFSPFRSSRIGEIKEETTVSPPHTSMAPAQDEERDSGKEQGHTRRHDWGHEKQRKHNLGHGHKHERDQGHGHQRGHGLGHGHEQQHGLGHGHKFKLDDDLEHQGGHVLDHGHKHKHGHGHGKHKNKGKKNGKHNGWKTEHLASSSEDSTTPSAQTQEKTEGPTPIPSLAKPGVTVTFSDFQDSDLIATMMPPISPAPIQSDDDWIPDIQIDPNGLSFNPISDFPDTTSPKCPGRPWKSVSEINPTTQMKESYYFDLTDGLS

B1: porcine EP serine protease domain (Ile800 to His1034) (protein)
chain: IVGGNDSREGAWPWVVALYYNGQLLCGASLVSRDWLVSAAHCVYGRNLEPSKWKAILGLHMTSNLTSPQIVTRLIDEIVINPHYNRRRKDSDIAMMHLEFKVNYTDYIQPICLPEENQVFPPGRICSIAGWGKVIYQGSPADILQEADVPLLSNEKCQQQMPEYNITENMMCAGYEEGGIDSCQGDSGGPLMCLENNRWLLAGVTSFGYQCALPNRPGVYARVPKFTEWIQSFLH
Turning to B1, the “nonspecific proteolytic activity (SDS-PAGE)” value with human fibrinogen, P02671 is “both of which were degraded noticeably by mammalian EP proteases”; in data set [8], “both of which were degraded noticeably by mammalian EP proteases”. The Km (commonly the concentration of substrate that gives half-maximal velocity) with Z-Phe-Arg-MCA was 200 µM; in data set [1] it was 300 µM; in [2] it was 400 µM; with Pro-Phe-Arg-MCA it was 3900 µM. Besides, the catalytic constant (kcat) (commonly the number of substrate molecules converted per active site and unit of time at saturation) was 0.917 s⁻¹ with Z-Phe-Arg-MCA, 1.83 s⁻¹ in [1], 8.83 s⁻¹ in data set [2] and 5 s⁻¹ in the data set with Pro-Phe-Arg-MCA. Also, the kcat/Km (mM^-1 · min^-1) came to 280 in the data set with Z-Phe-Arg-MCA, 370 in [1], 1300 in data set [2] and 77 with Pro-Phe-Arg-MCA. Further, the “proteolytic activity (gelatin zymography)” value in the data set with gelatin is “these substrates were detectably hydrolyzed by the mammalian proteases”. Moreover, the “cleavage of the fusion protein (SDS-PAGE)” value in data set [3] is “the porcine protease extensively degraded the substrate”; in [4], “the fusion protein was extensively digested by mammalian EP serine proteases”; in [5], “the mammalian enzymes not only produced the two expected polypeptides but also further degraded the products”. In addition, the “proteolytic activity (SDS-PAGE)” value (with mouse laminin; in [7]) was “these substrates were detectably hydrolyzed by the mammalian proteases” in each case. Besides, the “cleavage of the fusion protein (SDS-PAGE/Western blot)” value in data set [6] was “but not with mammalian ones, showed two polypeptides (53- and 55-kDa)”.
